Laboratory results from patent US7556938B1, “Nucleic acids encoding potassium channel interactors” (Millennium Pharmaceuticals, Inc., priority 1998, dated 2009).

T1: rKv4.2 (Rattus norvegicus, UniProt Q63881)
T1 construct: expressed in transfected cells; host or cells: CHO cells, transient transfection with GFP co-transfected
T1 sequence (Q63881 1-630): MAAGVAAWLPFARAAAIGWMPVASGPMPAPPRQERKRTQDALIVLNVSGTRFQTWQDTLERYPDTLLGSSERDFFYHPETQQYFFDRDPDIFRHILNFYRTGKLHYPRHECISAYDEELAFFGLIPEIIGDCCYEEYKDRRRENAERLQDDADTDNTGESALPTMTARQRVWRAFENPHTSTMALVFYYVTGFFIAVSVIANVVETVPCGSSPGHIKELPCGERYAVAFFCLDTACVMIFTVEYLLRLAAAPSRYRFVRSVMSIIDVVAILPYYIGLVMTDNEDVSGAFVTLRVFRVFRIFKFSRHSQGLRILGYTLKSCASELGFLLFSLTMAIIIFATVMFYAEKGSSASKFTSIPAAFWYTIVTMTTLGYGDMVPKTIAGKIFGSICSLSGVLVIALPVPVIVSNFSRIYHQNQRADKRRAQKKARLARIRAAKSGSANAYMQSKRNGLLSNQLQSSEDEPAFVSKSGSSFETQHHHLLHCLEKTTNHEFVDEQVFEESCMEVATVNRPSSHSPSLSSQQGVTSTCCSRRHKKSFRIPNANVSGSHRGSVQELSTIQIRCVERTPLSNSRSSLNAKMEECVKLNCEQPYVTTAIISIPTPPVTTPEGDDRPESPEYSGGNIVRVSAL

T2: rKv4.3N (Rattus norvegicus, UniProt Q62897)
T2 construct: expressed in transfected cells; host or cells: yeast HF7c (bait), mated with Y187 (fish)
T2 sequence (Q62897 1-180): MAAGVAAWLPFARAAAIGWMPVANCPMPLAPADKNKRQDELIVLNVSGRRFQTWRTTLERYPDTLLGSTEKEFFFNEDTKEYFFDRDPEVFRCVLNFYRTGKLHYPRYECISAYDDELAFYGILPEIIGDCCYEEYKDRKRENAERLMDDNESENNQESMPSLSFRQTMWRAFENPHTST

B1: KChIP2: Potassium channel interacting protein KChIP2 (9ql) (protein)
chain: MRGQGRKESLSESRDLDGSYDQLTGHPPGPSKKALKQRFLKLLPCCGPQALPSVSETLAAPASLRPHRPRPLDPDSVEDEFELSTVCHRPEGLEQLQEQTKFTRRELQVLYRGFKNECPSGIVNEENFKQIYSQFFPQGDSSNYATFLFNAFDTNHDGSVSFEDFVAGLSVILRGTIDDRLSWAFNLYDLNKDGCITKEEMLDIMKSIYDMMGKYTYPALREEAPREHVESFFQKMDRNKDGVVTIEEFIESCQQDENIMRSMQLFDNVI
B2: KChIP3: Potassium channel interacting protein KChIP3 (p19) (protein)
chain: MQRTKEAMKASDGSLLGDPGRIPLSKREGIKWQRPRFTRQALMRCCLIKWILSSAAPQGSDSSDSELELSTVRHQPEGLDQLQAQTKFTKKELQSLYRGFKNECPTGLVDEDTFKLIYSQFFPQGDATTYAHFLFNAFDADGNGAIHFEDFVVGLSILLRGTVHEKLKWAFNLYDINKDGYITKEEMLAIMKSIYDMMGRHTYPILREDAPLEHVERFFQKMDRNQDGVVTIDEFLETCQKDENIMSSMQLFENVI
B3: KChIP2s: KChIP2 splice variant, human KChIP2s (protein)
chain: MRGQGRKESLSDSRDLDGSYDQLTDSVDDEFELSTVCHRPEGLEQLQEQTKFTRKELQVLYRGFKNECPSGIVNEENFKQIYSQFFPQGDSSTYATFLFNAFDTNHDGSVSFEDFVAGLSVILRGTVDDRLNWAFNLYDLNKDGCITKEEMLDIMKSIYDMMGKYTYPALREEAPREHVESFFQKMDRNKDGVVTIEEFIESCQKDENIMRSMQLFDNVI
B4: KChIP2m: KChIP2 splice variant m (protein)
chain: MRGQGRKESLSESRDLDGSYDQLTGHPPGPSKKALKQRFLKLLPCCGPQALPSVSENSVEDEFELSTVCHRPEGLEQLQEQTKFTRRELQVLYRGFKNECPSGIVNEENFKQIYSQFFPQGDSSNYATFLFNAFDTNHDGSVSFEDFVAGLSVILRGTIDDRLSWAFNLYDLNKDGCITKEEMLDIMKSIYDMMGKYTYPALREEAPREHVESFFQKMDRNKDGVVTIEEFIESCQQDENIMRSMQLFDNVI
B5: KChIP2C: KChIP2 splice variant, rat KChIP2C (protein)
chain: MRGQGRKESLSESRDLDGSYDQLTGHPPGPSKKALKQRFLKLLPCCGPQALPSVSENSVEDEFELSTVCHRPEGLEQLQEQTKFTRRELQVLYRGFKNECPSGIVNEENFKQIYSQFFPQGDSSNYATFLFNAFDTNHDGSVSFEDFVAGLSVILRGTIDDRLSWAFNLYDLNKDGCITKEEMLDIMKSIYDMMGKYTYPALREEAPREHVESFFQKMDRNKDGVVTIEEFIESCQQDENIMRSMQLSPLLN
B6: KChIP2l: KChIP2 splice variant, rat KChIP2l (protein)
chain: MRGQGRKESLSESRDLDGSYDQLTGHPPGPSKKALKQRFLKLLPCCGPQALPSVSETLAAPASLRPHRPRPLDPDSVEDEFELSTVCHRPEGLEQLQEQTKFTRRELQVLYRGFKNECPSGIVNEENFKQIYSQFFPQGDSSNYATFLFNAFDTNHDGSVSFEDFVAGLSVILRGTIDDRLSWAFNLYDLNKDGCITKEEMLDIMKSIYDMMGKYTYPALREEAPREHVESFFQKMDRNKDGVVTIEEFIESCQQDENIMRSMQLFDNVI
B7: 8t: 8t polypeptide, splice variant of 9q (protein)
chain: MNRCPRRCRSPLGQAARSLYQLVTGSLSPDSVDDEFELSTVCHRPEGLEQLQEQTKFTRKELQVLYRGFKNECPSGIVNEENFKQIYSQFFPQGDSSTYATFLFNAFDTNHDGSVSFEDFVAGLSVILRGTVDDRLNWAFNLYDLNKDGCITKEEMLDIMKSIYDMMGKYTYPALREEAPREHVESFFQKMDRNKDGVVTIEEFIESCQKDENIMRSMQLFDNVI

target: T1, rKv4.2; test: Patch-clamp of Kv4.2 currents in CHO cells coexpressing KChIPs; assay type: cell-based; details: coexpressed with Kv4.2
Description: HEK 293 and CHO cells were used for recordings 1-3 days after a transient transfection. Whole-cell currents were recorded from cells expressing GFP, identified by their green fluorescence. […] After Gigaseal and ruptured whole-cell configuration access, resistance was less than 10 MOhms. Whole-cell bath solutions were made from a 10× Hank's balanced salt solution (GibcoBRL) with the following final concentration (in mM): 138 NaCl, 5.4 KCl, 1.3 MgCl2, 1.3 CaCl2, 5.5 D-Glukos and 10 HEPES, pH 7.4. The intracellular electrode solution consisted of (in mM) 140 KCl, 10 HEPES, 10 EGTA, 0.5 MgCl2, pH 7.3. All chemicals were from Sigma (St. Louis, Mo.) or Fisher Scientific (Houston, Tex.). Membrane currents were recorded using a EPC9 patch-clamp amplifier (HEKA, Germany). Data were analyzed using Matlab (Natick, Ma), and leak subtracted if necessary. All experiments were done at room temperature.
Because PCIPs, e.g., KChIP1 (1v), KChIP2 (9ql), and KChIP3 (p19), colocalize and coassociate with Kv4 α-subunits in brain, another critical question was to determine whether these PCIPs alter the conductance properties of Kv4 channels. To address this issue, Kv4.2 and Kv4.3 were expressed alone and in combination with individual PCIPs. CHO cells were transiently-transfected with cDNA using the DOTAP lipofection method as described by the manufacturer (Boehringer Mannheim, Inc.). Transfected cells were identified by cotransfecting enhanced GFP along with the genes of interest and subsequently determining if the cells contained green GFP fluorescence. Currents in CHO cells were measured using the patch-clamp technique (Hamill et al. 1981. Pfluegers Arch. 391: 85-100).
First, the amplitude of the Kv4.2 current increased approximately 7.5 fold in the presence of KChIP1 (amplitude of Kv4.2 alone=0.60+/−0.096 nA/cell; Kv4.2+KChIP1=4.5+/−0.55 nA/cell). […] Finally, the kinetics of Kv4.2 inactivation slowed considerably when Kv4.2 was coexpressed with KChIP1 (inactivation time constant of Kv4.2 alone=28.2+/−2.6 ms; Kv4.2+KChIP1=104.1+/−10.4 ms), while channels recovered from inactivation much more rapidly in cells expressing both Kv4.2 and KChIP1 (recovery tau=53.6+/−7.6 ms) versus cells expressing Kv4.2 alone (recovery tau=272.2+/−26.1 ms).

**Q.** For B1, which “effects on Kv4.2 current density and kinetics” value is on record?
**A.** Its value is “strikingly similar to those produced by KChIP1”.

**Q.** Which “effects on Kv4.2 current density and kinetics” value does the source give for B2 here?
**A.** Its value is “strikingly similar to those produced by KChIP1”.

tested on: rKv4.3; test: Two-electrode voltage clamp of Kv4.3 currents in Xenopus oocytes co-injected with KChIP cRNA; assay type: cell-based, rat; details: Kv4.3 co-expressed with the KChIP
Sequence (Q62897 1-487 limits assumed): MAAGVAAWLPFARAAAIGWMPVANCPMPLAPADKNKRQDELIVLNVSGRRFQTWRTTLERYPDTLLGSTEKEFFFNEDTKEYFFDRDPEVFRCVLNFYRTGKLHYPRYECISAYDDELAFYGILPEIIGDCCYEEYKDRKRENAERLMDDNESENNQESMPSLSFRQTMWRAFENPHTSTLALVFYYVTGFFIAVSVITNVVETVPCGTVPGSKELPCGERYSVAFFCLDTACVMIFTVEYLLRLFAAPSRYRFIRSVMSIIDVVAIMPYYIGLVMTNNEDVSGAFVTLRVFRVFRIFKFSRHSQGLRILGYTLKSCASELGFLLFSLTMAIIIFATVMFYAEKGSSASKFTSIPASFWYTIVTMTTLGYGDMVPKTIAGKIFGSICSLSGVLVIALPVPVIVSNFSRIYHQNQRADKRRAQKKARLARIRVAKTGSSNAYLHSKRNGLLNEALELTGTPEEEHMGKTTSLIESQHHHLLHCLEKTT
Description: Frogs underwent no more than two surgeries and surgeries were performed by well established techniques. Frogs were anesthetized with ice. Total cRNA (1-10 ng) was injected into stage IV Xenopus oocytes that were harvested the previous day. The Xenopus oocytes were incubated in ND96 containing (in mM) 96 NaCl, 2 KCl, 1.8 CaCl2, 1 MgCl2, 5 HEPES, pH 7.6, plus (Gentamycin 50 μg/ml) at 18° C. Xenopus oocytes were studied 3-7 days after injection. The two-electrode voltage-clamp recordings were performed in ND96 solution using a TURBO TEC 03 Clamp Amplifier (ALA Scientific Instruments, Westbury, N.Y.). Both electrodes were filled with 3 M KCl and had electrode resistances ranging from 0.2-1 MOhm. The current signals were filtered at 1000 Hz before transferred on a PC (Gateway, Calif.) using the PULSE software (HEKA, Germany).
To investigate whether the modulatory effects of these KChIPs are specific for Kv4 channels, KChIP1 was coexpressed with Kv1.4 and Kv2.1 in Xenopus oocytes. Xenopus oocytes were injected with 1-3 ng/oocyte of cRNA which was prepared using standard in vitro transcription techniques (Sambrook et al. 1989. Molecular Cloning: a laboratory manual, Cold Spring Harbor Press). Currents in Xenopus oocytes were measured with a two-electrode voltage clamp. […] As a final control for the KChIP effects and to verify that the KChIPs' effects on Kv4 currents are independent of expression system, the above kinetic analyses were repeated after expressing Kv4.3 and KChIP mRNAs in Xenopus oocytes. The effects KChIP1 on for Kv4.3 in the Xenopus oocyte system were strikingly similar to those on Kv4.2 in CHO cells (Table 1).

**Q.** B3 was tested. Which “Inactivation time constant (ms ± SEM)” value did it give?
**A.** Its value is 90 ± 3 ms.

**Q.** And the “Peak amplitude (μA ± SEM)” value?
**A.** The value was 44 ± 3 μA.

**Q.** Which “Inactivation time constant (ms ± SEM)” value does the source give for B4 here?
**A.** Its value is 70 ± 2 ms.

**Q.** What about the “Peak amplitude (μA ± SEM)” value of the same molecule?
**A.** Its value is 40 ± 4 μA.

**Q.** Which results are given for B5?
**A.** Inactivation time constant (ms ± SEM): 74 ± 4 ms; Peak amplitude (μA ± SEM): 44 ± 5 μA

**Q.** How did the “Inactivation time constant (ms ± SEM)” value turn out when B6 was run?
**A.** The value was 87 ± 4 ms.

**Q.** And the “Peak amplitude (μA ± SEM)” value?
**A.** Its value is 51 ± 4 μA.

target: T2, rKv4.3N; test: Yeast two-hybrid binding and specificity test, Kv4.3 N-terminal bait; details: not given
Description: The first 180 amino acids of rKv4.3 (described in Serdio P. et al. (1996) J. Neurophys 75:2174-2179) were amplified by PCR and cloned in frame into pGBT9 resulting in plasmid pFWA2, (hereinafter “bait”). This bait was transformed into the two-hybrid screening strain HF7c and tested for expression and self-activation. The bait was validated for expression by Western blotting.
Two-hybrid screens were carried out essentially as described in Bartel, P. et al. (1993) “Using the Two-Hybrid System to Detect Polypeptide-Polypeptide Interactions” in Cellular Interactions in Development: A Practical Approach, Hartley, D. A. ed. Oxford University Press, Oxford, pp. 153-179, with a bait-library pair of rkv4.3 bait-rat mid brain library. A filter disk beta-galactosidase (beta-gal) assay was performed essentially as previously described (Brill et al. (1994) Mol. Biol. Cell. 5:297-312). Clones that were positive for both reporter gene activity (His and beta-galactosidase) were scored and fish, plasmids were isolated from yeast, transformed into E. coli strain KC8, DNA plasmids were purified and the resulting plasmids were sequenced by conventional methods (Sanger F. et al. (1977) PNAS, 74: 5463-67).
Positive interactor clones were subjected to a binding specificity test where they were exposed to a panel of related and unrelated baits by a mating scheme previously described (Finley R. L. Jr. et al. (1994) PNAS, 91(26):12980-12984). Briefly, positive fish plasmids were transformed into Y187 and the panel of baits were transformed into HF7c. Transformed fish and bait cells were streaked out as stripes on selective medium plates, mated on YPAD plates, and tested for reporter gene activity.

**Q.** How did the “binding to rKv4.3N in yeast two-hybrid assay” value turn out when B4 was run?
**A.** The value was “able to bind to the Kv4.3 polypeptide”.

**Q.** For B7, which “binding to rKv4.3N in yeast two-hybrid assay” value is on record?
**A.** The value was “able to bind to the Kv4.3 polypeptide”.
